Results on 58 substances are retold here after the supplement of paper PMC12042874.

± gives the uncertainty stated by the source.

The nature of the data set: amyloid nucleation score (Sup35N fusion, yeast selection) (log enrichment); library NNK2; higher = more nucleation; inactive = no reads after selection. The gist of the method:
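After 24 hours of induction with 100 μM copper sulfate, psi-negative yeast expressing peptides of 20 random codons fused to Sup35N were grown for 7 days at 30°C on medium lacking adenine and uracil. Input and output plasmid inserts were sequenced with Illumina, and sequences with under 100 input reads were discarded. Scores for nucleation are the DiMSum log enrichment of output over input reads, centred on the mode score of non-aggregating sequences.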
Consider TLFCIVMYCTKVETNFLVLH, for which the amyloid nucleation score was 6.45 ± 0.085.
The substance FIFVSNKYTNGIFAILGT registered an amyloid nucleation score of 1.98 ± 0.13.
Next, FSLQQVNFMTVSRGKCSLKL: “inactive”; FGWVVSSVSFKVMMAV: -0.084 ± 0.44.
Regarding HWRGFYS, the amyloid nucleation score is -0.388 ± 1.1.
The same measure for HWCLLNSPNYIEMSLNDFLY: 3.62 ± 0.053.
Substance WVQLWESASFGNRLVGNMSL displayed an amyloid nucleation score of -0.352 ± 1.
The same measure for NLAGKGAITDRFSQVRSGQS: 1.4 ± 0.25; for GVYIRVVSHEWVLFW: “inactive”; for LYFDR: -0.417 ± 1.1.
Next, LQDAHHSVVCVRQSCYERLG: -0.187 ± 0.65.
The same measure for STGILRS: “inactive”; for PARLTNCGDPSY: -0.997 ± 0.3.
In the case of FSGDGCRDSA, the amyloid nucleation score is 0.307 ± 0.56.
The same measure for VSSVRCNRVAYNPASGRGRR: -0.124 ± 0.55; for KHMLASSFVTVPFVAPCFHF: “inactive”; for KLYWGNWWCRGSLVDTI: 0.695 ± 0.66.
Substance FCEWGSEYWGNMDCDACDTA returned an amyloid nucleation score of -1.09 ± 0.76.
Next, YCSQAYHAGRRSALEQDSCM: 0.734 ± 0.81.
Substance MRFPGSGGRCLMTFLRLEWV registered an amyloid nucleation score of 0.329 ± 0.28.
The same measure for IWLVQGTAFPGMLSGQGWLL: 0.147 ± 0.76; for FAFTPIC: -1.59 ± 1.
On to VLQDMYYKSVKKLQARSKDF, for which the amyloid nucleation score entry was “inactive”.
Substance YFLHCQPLVWDTLRVRQMVR registered an amyloid nucleation score of -0.062 ± 0.35.
Substance LESMRRY registered an amyloid nucleation score of 1.42 ± 0.27.
Next, REDLLRNKTLL: -0.858 ± 0.44; IHVICCAGRVARCFVSEIMG: 0.674 ± 0.48.
Take SFSESIPIIGGLRKAVSHTS: the amyloid nucleation score amounted to 0.413 ± 0.24.
The same measure for LRFCYKEATV: 0.016 ± 0.65.
The same measure for GVAYRWPFGQK: 0.155 ± 1.1; for LMRRHRA: 0.954 ± 0.25.
With GSKRCSFRGLCIIYSVSMCS, the amyloid nucleation score turned out to be 6.996 ± 0.044.
Next, TRNYLFTTSNWYVSSKMSNS: -0.632 ± 0.56; ETKKLYDRAARERRCCRNHY: 0.078 ± 0.3.
NLLRNRARWL registered an amyloid nucleation score of -1.08 ± 0.44.
In turn, MVLDIFAS registered an amyloid nucleation score of 1.19 ± 0.44.
Next, RFWLESIWLDNL: 0.25 ± 0.42; IPPNGPVYCRYHNRQVCRAG: 0.203 ± 0.34; FEKISSAFFGNYGLFMNWLS: -0.441 ± 0.78.
For the substance YQYDNPVLDKT, the amyloid nucleation score is -0.178 ± 0.55.
Next, SNLFCLNTSLVQAVMMACPI: 0.113 ± 1.1.
In turn, TVSYCVAYSMQQMLS had an amyloid nucleation score of -0.072 ± 1.1.
Next, VGAYPEEKR: -0.013 ± 0.38; VDHQVFNHDHCGRIYVLCLG: -0.322 ± 0.31; GHGKPTGYYGDYENQTVLY: -0.25 ± 0.61.
Next, YSSDYILSFNVNNTMVVSFE: 5.59 ± 0.078.
MASITDDRADLHH: the amyloid nucleation score result was “inactive”.
LLAKSLDTGILD: the amyloid nucleation score worked out at 6.487 ± 0.025.
Next, VMCEEGLALRRCTGWLMFTG: 1.11 ± 0.28.
The same measure for TVHRCD: 0.627 ± 0.57.
As for GEYISEGDCTCRLQRMVVIE, the amyloid nucleation score is -0.025 ± 0.76.
The same measure for VSCLTAPILSMENPSEEYVG: 1.55 ± 0.35.
Next, EVRWASAPRNCCR: 0.79 ± 0.26; ALDHSV: -0.271 ± 1; QTNST: 0.526 ± 0.57.
In turn, MMARFCVAFQHVIESNLGGS registered an amyloid nucleation score of -1.4 ± 0.44.
The same measure for HTLGIWLKREPWGMMYGLRG: 0.165 ± 1; for KEGFPMIIDYEIGFTDLSGG: -1.43 ± 0.75.
